Test: label from the status in PepcDB records

| Sequence | protein production |
| --- | --- |
| MDTFDINTEINEDEINVEKIMEKIRENIRKQKGAGIFPEKIHGDLQQGSLLEVTPGESNIQRDLDYINSNWDIQNNSYFISSHRPFVGKFLVRGRDLVHGEIRRYVDPVFWKQTEFNGSTVRLLNDTAGKFIYYNNKIEQLQSEMDSKIEQLQSEMDSKIEHLRPELGNKIERLRSEFENQIEQLKSEIDDSIKAEVNSIISLMNLDIENKAWLASVLDGKIEKGYKNKKTGTPDPGDLDINYFRFEEQFRGSREDIKQRQSCFMNYFLGCSNVLDIGCGRGEFLELASEHGIGAKGVDIDDTMVDFCLSKGLNVVKQEAISYLESVDDKSLDGIFIDQVVEHLEPDYLIKLLKLCFQKLKYGYYIFAETVNPLSFVSFANFYIDMTHKKPIHPETLKFLLTSAGFRDVDTMFFSPVSEKARLQKVPINNDMEEWVKNYLDIYNHNLEKLNGILYGAQDYAVIGKK | failed |
| MDTNNNIEKEILALVKQNPKVSLIEYENYFSQLKYNPNASKSDIAFFYAPNQVLCTTITAKYGALLKEILSQNKVGMHLAHSVDVRIEVAPKIQINAQSNINYKAIKTSVKDSYTFENFVVGSCNNTVYEIAKKVAQSDTPPYNPVLFYGGTGLGKTHILNAIGNHALEKHKKVVLVTSEDFLTDFLKHLDNKTMDSFKAKYRHCDFFLLDDAQFLQGKPKLEEEFFHTFNELHANSKQIVLISDRSPKNIAGLEDRLKSRFEWGITAKVMPPDLETKLSIVKQKCQLNQITLPEEVMEYIAQHISDNIRQMEGAIIKISVNANLMNASIDLNLAKTVLEDLQKDHAEGSSLENILLAVAQSLNLKSSEIKVSSRQKNVALARKLVVYFARLYTPNPTLSLAQFLDLKDHSSISKMYSGVKKMLEEEKSPFVLSLREEIKNRLNELNDKKTAFNSSE | failed |
| MDTRKLLLTAQEISRMKGEHKVHFLNPGAVRVNKSLGDAVGLRHMGIHLIQIEPGKESTEYHLHHYEEEAVYVLSGKGTLTMENDQYPIAPGDFVGFPCHAAAHSISNDGTETLVCLVIGQRLDQDVVDYPNQHKRLYRNNGEWNLVDMADIRVLREPTQK | not failed |
| MDTSNLDTPMRMAAFDRVRGLNEVHDHLTATELQPGFLFRGERIPLVNPQRGIFKPHQMRFLLSIKTVFPKPGGKVWYDDQRDIQRQIFYGDEAIDYAFMGKNPDAADNRWLKEAYENQIPVVYFLGIAPGRYQALLPTFISGWDGQALKARITFGPNPEKLAPPSDSAERRYALRTVKQRLHQATFREAVISAYDGRCAFSGLPEPLLLDAAHIIADKDERLGHPVVTNGIPLSKIHHAAFDAHLIGIDPDFRLHVSDRLLGQNDGPMLEALKQLNGRNIRLPGRAKDHPDRDRLAMRFERYKSVA | failed |
| MDTSTNLDIGAQLIVEECPSTYSLTGMPDIKIEHPLDPNSEEGSAQGVAMGMKFILPNRFDMNVCSRFVKSLNEEDSKNIQDQVNSDLEVASVLFKAECNIHTSPSPGIQVRHVYTPSTTKHFSPIKQSTTLTNKHRGNEVSTTPLLANSLSVHQLAAQGEMLYLATRIEQENVINHTDEEGFTPLMWAAAHGQIAVVEFLLQNGADPQLLGKGRESALSLACSKGYTDIVKMLLDCGVDVNEYDWNGGTPLLYAVHGNHVKCVKMLLESGADPTIETDSGYNSMDLAVALGYRSVQQVIESHLLKLLQNIKE | failed |
| MDTVVLVLMLLTAFNFLLKQTFWKLIAVGIITAICAVFAGLMWPYAIEQSKTQIANWLSNQPLMLDTSVLLSVEVCIQMAYAMLAVHVANDYPVKPRMILMYRFLRWFPGLLIFPVLFSGLVYLIFAFPGTSFQTIAWSYAAFILAAIPCGRFILLYLLPEKELRLELFFLTNALVAVLGIVATVNGKTSAAGVSEIDWKALTGVIVIALAGGILGLLWWNIRNRNKEKSVKQ | failed |
| MDVFSEYLAGIADPFHRERTEEVLTWIKNKYPNLHTEIKWNQPMFTDHGTFIIGFSVSKKHLAVAPEKVTIAHVEDDIVKAGYDYTEQLIRIPWNGPVDYTLLEKMIEFNILDKADCSTFWRK | not failed |
| MDVPTPPPAEIYLAIQLPNPLSILVNYLPVSVTPIETLRGLVSTLEPTAINMDEFMTWPDFVLPETPFRTYFTLLLERGARPAIYLEGVRLACNFITVAHGLTMLSSISPIDAYACFSHGLFLTATGNGREVEAVNATFWDLVPSFEAANTVGELVMYHISRLHAEGTRLWNRSWRFVVSPDCLGRCSYGACCRNCFFYWYARELCIFY | failed |
| MDVQIHPMIIELAAFQAAKCGSVVGFGMVPSRNPSIKAASFFGIMVVTRSHVGESKDKGKEVEIAEPIESLILWLEELVAKQNKAMMRPMSDMMGAISRSTSHKLHDEQSTRDWSLPRSSTSTDDRSGHPVYRRKNRYDQVRYDAHQHYGNLTRLGKIDISRLDGIGIKEWLFKVEEFFGVDFTLQI | failed |
| MDVRQRLISSMVISLGLTIISEGIVLIGIASLLHISLFFIFPALVIFWLFQWIISPYVVGRGGYEVSPNDPQYGWLYNLVRRIAEESKIKPPRVFVIDAPYPNAFAYGNRLGGMRVGITLPLLNILDVDELTAVIAHEVGHIKHRDVEIGMTIGLIPTVLGYISTLLMNFGYLALFLAADEIELLFAIAALAIGFVIFVVTFILQIFVLWFNRLRESYADYNSFLVLGEGSKALATALAKIEIYMQNIRIDPFTGIIVTAPPVKVEEKDPHLLVEQWLRTKVSAFKDILSTHPYPARRAQMIYRLIYGSNI | failed |
| MDVSFEFEHYQVRLIKSSDAVTIANYFMRNRHHLAPWEPKRSHAFFTPEGWKQRLLQLVELHKHNLAFYFVVVDKNEHKIIGTVSYSNITRFPFHAGHVGYSLDSEYQGKGIMRRAVNVTIDWMFKAQNLHRIMAAYIPRNEKSAKVLAALGFVKEGEAKKYLYINGAWEDHILTSKINDDWKPE | failed |
| MDVSLPCIKIQVQTRYIEEQSNPEYQRFVFAYLITIKNLSSQTVQLMSRRWLITDADGKQTVVEGDGVVGEQPRIKANDEYTYSSGTALDTPVGVMQGQYLMIDEQGESFTVEIEPFRLAVPHVLN | not failed |
| MDWDDEYSHNSFDLHCLLNSFPGDLEFEQIFSDIDEKIEQNAASIKHCIKEIQSEINKQCPGVQLQTTTDCFEWLTNYNYSTSESSFISHGDLIKFFKTLQDLLKNEQNQEEMTLDLLWDLSCHSSVSFPSTLSGTSFHFLSRTSLHSVEDNSSMDVKSMWDDIRLHLRRFLVSKLQSHNEINNSQQKILLKKQCLQQLLFLYPESEVIIKYQNIQNKLLANLLWNCFPSYNRDSNLDVIAHGYQSTMLKLYSVIKEDFNTLCEILAPSSMVKFIKETYLDTVTEEMAKFLENFCELQFRENAVRVVKTSKSSSKHRGAVHALG | not failed |
| MDWYLKVLKNYVGFRGRARRKEYWMFILVNIIFTFVLGLLDKMLGWQRAGGEGILTTIYGILVFLPWWAVQFRRLHDTDRSAWWALLFLIPFIGWLIIIVFNCQAGTARRKPLWTRSKTGTLKQICSPDV | failed |
| MDWYVGTEWEDKNRGLAKKVIGLQFTEMDKPTIISTVEFSVNKKATNLGGRPSKYLVSDESATYPQKHSLEMGTSLTAVDCYLELLLQQFVPGETAACSITTKTGERIEFELKLEKIVKNTQVEKLSAAEIYEVALRLKESGVATFKTFPKFAFDYFVRAAKLLITYKPFDKLTKKTNGINGQAVEELFIQIQTNLAACLLQEKRYEHVIYHTQFVETEESPSEKSIYRRALAYYHLKEFAKAQATIERMPNYEEKREFSKLRDNIAVSWKDSKAHYKEVVQRMFS | failed |
| MDYCYTGDTHEKLFAAYRADEEPFPTQTQMEFPRREHRRPEIDILKRLFFPTCWNAAELVRDELAVLDRLDTLGGLFFAGIRPYSGSDPAETVDAVIDQLPAVRTRLKKDVEAAFKGDPAAKTYMEIIRSYPGFMAILVQRVAHTLYEAGASEYARELTEYAKTETGIDIHPGAEIGDHFFIDHGTGVVIGETTTVGEWVRLYQDVTLGALHFEADESDEHRLKKGYKRHPDIGDHVVIGAGTKVLGAISVGDHVSIGANSWVTDDIPDDTKVYVTDHPTQERKRTN | failed |
| MDYNKTAKDILKLLGGEKNVMSAAHCATRLRLVLKNEKEARTKEIEKLDGVKGVFSSSGQYQIIIGQGSVNKVYKAFVEGTGISESSLSDTKKAAMKNM | not failed |
| MDYPNQTSSALFHSSEPLGLNLVDYLRVLLSQYWLIIGIAIGATSLTFGVSLLLPQKFRATATLQIERDVPKVMNVDNLIPVESPLDRDFYQTQYQLLQSRSLARAVIRKMNLGREPMFKPLVDKVLSKVQSLPVNTRNTAIESALIEMMLNSLKIEPILNSRLVYVHFDSHDPTLSAKVANAYAKMFIENNQQRRSNAFSFAMKYLAGRLEQLRIKVDKSERNVVAYSTDEKIVSVGDEKPSLSAQNLSDLNALLASAQNERIRAEASWRQASIGDGLSIPQVLSNLLVQSLRTDQANMVNEYQQKLSMFKPEYPEMQRLKARIKENTKQINAEVFNIRQSLKAQYEAALRQENLLNDRIAVLEKDELDLKTRLIRYNLLEREAETDRQLYDALLQRYKEISVLGDVGSNNVTVVDAADIPSRPISPNLLMNTILGGIFGVFLGLTVAMVRYSMHGAKRINVMSVE | failed |
| MEAARSMTFSECAALYIKAHRSSWKNTKHADQWTNTIKTYCGPVIGPLSVQDVDTKLIMKVLDPIWEQKPETASRLRGRIESVLDWATVRGYREGDNPARWRGYLEHHHHHH | not failed |
| MEAFTFNTTELILLSATGVLLIIQLIYYLGLYNRIHTHNLAVGKDEVHFGRELPPLSVVICARNESENLRRNLPTILKQDYPDFEVIVINDGSTDESEDLLSALEEEYPNLYHSFTPDSARYISRKKLALTLGIKASKHDWLVFTEADCAPVSNQWLRRMARNFTSSTDIVLGYSGYERGKGWLHKRASFDSLFTSLRYLGFALAGKPYMGIGRNLAYRKELFFKVKGFSTHLNMQRGEDDLFINQVANENNTRVETSPDAVIRMQPVERYKDWKEEKVSYMATSRFYKGSQRWLLGLETGTRLLFYAACLVGIVFGILSFHWLVVGLSLLLWFVRYSVQAYVINKTAGEMGDNRSYYFTLPVFDIIRPLQTLKLKLYRLYRGKGDFMRR | failed |
| MEAKKYQAFWRGAIILTIASFVTKVLSAFYRIPYQNIAGDVGFYIYQQIYPFYGFCLILATYGFPVIISKMVAERLERGKQKEAEEIICVSFWFLLGIGFIGFFTLFFGAETIAVAMGDIHLDKLLRVISFSFLLMPFLSVARGYFQGFNNMMPTAVSQVIEQTIRVSIIVFLSLFLIAHGFDLYTVGAGAMLGSIAGGLIGIIVLILYMRQDFRSIFFKSAARIKGKRKIVKILFWQGLAICVSNLVLIFIQMADSVSFYSLLIGAGEQAENAKVLKGVYDRSIPLMQLGTVVTTSFSLSLIPIITAAKERGDLSFIQEKVKLAMKITFVIGLAAAIGLTCIIQPTNIMLFENSDGSDVLSILSLSILFSSLSITTASILQGLGQTFKPALFVVFAGCLKLALNYIFMPYFGVKGAAFATLCALIIISGLNSLLLTRAVSGSLINKRNMLGIVISGICMGFVLMMFTRVLQMSGLVINTEHRGSATLEALLGVAIGGLTYMFFILKLRVFTKKELGTVMKQEKKEGSLKKSG | failed |
| MEALAMAGVDYQEWGLSIEEWELQESVVPLHLLADDFKEEEQEEDHQDNDDDDRVLDGLAVKQSVTRDIRASVGKFIEQSMSHMIVHLKQLKFLTLLLENFLFTHVLDFLL | failed |
| MEALKRKIEEEGVVLSDQVLKVDSFLNHQIDPLLMQRIGDEFASRFAKDGITKIVTIESSGIAPAVMTGLKLGVPVVFARKHKSLTLTDNLLTASVYSFTKQTESQIAVSGTHLSDQDHVLIIDDFLANGQAAHGLVSIVKQAGASIAGIGIVIEKSFQPGRDELVKLGYRVESLARIQSLEEGKVSFVQEVHS | not failed |
| MEANTSSSGTVTGQRFAERRRSLPPGAELRQRLLKQLKELCDQIGKAYSTLVQKAALVIEPADQAVSLEPDTQRQATCITNLSDEGELWTTVYELNLGVQNLLMFIEDIRLLLLTQAQVPGPSVEENGLKTAGKGGCSPTELEGARFSDRLSSSNTHRFLEQLWDRYTP | not failed |

From a protein production outcome set (Wang et al. 2014)
